# According to patent US20070134813A1:
# T1: C-reactive protein (human) (UniProt P02741)
# T1 sequence (looked up): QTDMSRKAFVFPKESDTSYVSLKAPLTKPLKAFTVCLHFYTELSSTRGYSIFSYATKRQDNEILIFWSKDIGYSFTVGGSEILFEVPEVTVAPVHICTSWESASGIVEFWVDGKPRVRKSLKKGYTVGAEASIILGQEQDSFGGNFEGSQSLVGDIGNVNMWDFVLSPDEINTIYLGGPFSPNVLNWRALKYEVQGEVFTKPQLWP
# Assays:
# [1] = molecular target: T1, C-reactive protein (human); assay: SPR, Fn 1 mg/mL in the presence of 50 uM 19-mer injected over antibody-captured CRP
# [2] = molecular target: T1, C-reactive protein (human); assay: SPR (Biacore X), Fn 1 mg/mL without inhibitor injected over CRP captured on immobilized anti-CRP antibody, 25 C
# [3] = molecular target: T1, C-reactive protein (human); assay: SPR, Fn 1 mg/mL in the presence of 50 uM 9-mer injected over antibody-captured CRP
# [4] = molecular target: T1, C-reactive protein (human); assay: SPR, Fn 1 mg/mL in the presence of 50 uM 10-mer injected over antibody-captured CRP
# [5] = molecular target: T1, C-reactive protein (human); assay: SPR, inhibition of Fn (1 mg/mL) binding to antibody-captured CRP at 50 uM peptide
SPR Response (RU) [1],SPR Response (RU) [2],SPR Response (RU) [3],SPR Response (RU) [4],% Inhibition [5],Molecule
76 RU,118 RU,119 RU,76 RU,–,fibronectin (from UniProt P02751 32-2477)
–,–,–,–,35.6%,PRCGNPDVANYNFFPRKPK [19-mer (SEQ ID NO.: 11)]
–,–,–,–,0%,PRCGNPDVA [9-mer (SEQ ID NO.: 16)]
–,–,–,–,35.6%,NYNFFPRKPK [10-mer (SEQ ID NO.: 12)]
